The values that follow come from paper PMC12516131.

Experiment [1] deals with eGFP–POK2^2083–2440 (Arabidopsis thaliana). Description: native gel or EMSA; blue native PAGE, 4–12% Tris-Glycine gels, 100 ng of each protein per lane, anti-GFP western blotting and silver staining; oligomeric state in solution. On the technique in general: In EMSA bound probe runs differently from free probe, usually more slowly.
Experiment [2] has as its target GMPCPP- and paclitaxel-stabilised microtubules (porcine brain tubulin) (porcine (brain tubulin)). Description: single-molecule TIRF microscopy on microtubules; 2 nM eGFP–POK2^2083–2771 in PEM20-based Reaction Buffer on unlabelled stabilised microtubules (IRM); kymographs, landing rate and interaction times of diffusive particles.
For experiment [3] the target is unchanged. Description: TIRF microscopy microtubule binding assay; 10% rhodamine-labelled GMPCPP/paclitaxel microtubules immobilised on glass by anti-β-tubulin antibody; eGFP–POK2 fragment at increasing concentrations in PEM20-based Reaction Buffer (20 mM K-PIPES pH 6.9, 1 mM MgCl2, 1 mM EGTA, casein, 1 mM ATP, 5 mM DTT); intensity per microtubule length; Hill–Langmuir fit.

As usually defined, the stoichiometry N is the number of molecules, sites or subunits per partner or assembly. Turning to “eGFP–POK2^2083–2440 (domain or fragment)”, the stoichiometry N in experiment [1] turned out to be 2.
In general, Kd refers to the constant that tells how readily two partners part at equilibrium. In experiment [2], “eGFP–POK2^2083–2771–8×His (domain or fragment)” gave an interaction time (subpopulation 1) of 0.9 s, an interaction time (subpopulation 2) of 6 s, an interaction time (subpopulation 3) of 43 s and a landing rate at 2 nM of 0.16 µm^−1 min^−1. In addition, in experiment [3], the Kd was found to be 106 nM.
